Data as given in paper PMC1874592.

Substrate: Nc1ncnc2c1ncn2[C@@H]1O[C@H](COP(=O)(O)OP(=O)(O)OP(=O)(O)O)[C@@H](O)[C@H]1O
Test: purified protein
Conditions: labelled compound, ΦX174 ssDNA, Mg2+, 65°C

Protein | Km (5.0 μM protein) | kcat (5.0 μM protein) | further results
SsoRadA (Sulfolobus solfataricus RadA) (Saccharolobus solfataricus P2) (protein) MSNEVEQKKNIKTINDLPGISQTVINKLIEAGYSSLETLAVASPQDLSVAAGIPLSTAQKIIKEARDALDIRFKTALEVKKERMNVKKISTGSQALDGLLAGGIETRTMTEFFGEFGSGKTQLCHQLSVNVQLPPEKGGLSGKAVYIDTEGTFRWERIENMAKALGLDIDNVMNNIYYIRAINTDHQIAIVDDLQELVSKDPSIKLIVVDSVTSHFRAEYPGRENLAVRQQKLNKHLHQLTRLAEVYDIAVIITNQVMARPDMFYGDPTVAVGGHTLYHVPGIRIQLKKSRGNRRIARVVDAPHLPEGEVVFALTEEGIRDAEE | – | – | Km (3.0 μM protein): 300 ± 10 µM; kcat (3.0 μM protein): 0.00085 ± 1.7e-05 s⁻¹
SsoRadA (Sulfolobus solfataricus RadA) (Saccharolobus solfataricus P2; F73D) (protein) MSNEVEQKKNIKTINDLPGISQTVINKLIEAGYSSLETLAVASPQDLSVAAGIPLSTAQKIIKEARDALDIRDKTALEVKKERMNVKKISTGSQALDGLLAGGIETRTMTEFFGEFGSGKTQLCHQLSVNVQLPPEKGGLSGKAVYIDTEGTFRWERIENMAKALGLDIDNVMNNIYYIRAINTDHQIAIVDDLQELVSKDPSIKLIVVDSVTSHFRAEYPGRENLAVRQQKLNKHLHQLTRLAEVYDIAVIITNQVMARPDMFYGDPTVAVGGHTLYHVPGIRIQLKKSRGNRRIARVVDAPHLPEGEVVFALTEEGIRDAEE | 490 ± 30 µM | 0.00085 ± 1.7e-05 s⁻¹ | –
SsoRadA (Sulfolobus solfataricus RadA) (Saccharolobus solfataricus P2; R83E) (protein) MSNEVEQKKNIKTINDLPGISQTVINKLIEAGYSSLETLAVASPQDLSVAAGIPLSTAQKIIKEARDALDIRFKTALEVKKEEMNVKKISTGSQALDGLLAGGIETRTMTEFFGEFGSGKTQLCHQLSVNVQLPPEKGGLSGKAVYIDTEGTFRWERIENMAKALGLDIDNVMNNIYYIRAINTDHQIAIVDDLQELVSKDPSIKLIVVDSVTSHFRAEYPGRENLAVRQQKLNKHLHQLTRLAEVYDIAVIITNQVMARPDMFYGDPTVAVGGHTLYHVPGIRIQLKKSRGNRRIARVVDAPHLPEGEVVFALTEEGIRDAEE | 460 ± 60 µM | 0.000867 ± 6.7e-05 s⁻¹ | –
SsoRadA (Sulfolobus solfataricus RadA) (Saccharolobus solfataricus P2; R83A) (protein) MSNEVEQKKNIKTINDLPGISQTVINKLIEAGYSSLETLAVASPQDLSVAAGIPLSTAQKIIKEARDALDIRFKTALEVKKEAMNVKKISTGSQALDGLLAGGIETRTMTEFFGEFGSGKTQLCHQLSVNVQLPPEKGGLSGKAVYIDTEGTFRWERIENMAKALGLDIDNVMNNIYYIRAINTDHQIAIVDDLQELVSKDPSIKLIVVDSVTSHFRAEYPGRENLAVRQQKLNKHLHQLTRLAEVYDIAVIITNQVMARPDMFYGDPTVAVGGHTLYHVPGIRIQLKKSRGNRRIARVVDAPHLPEGEVVFALTEEGIRDAEE | – | – | Km (2.5 μM protein): 210 ± 10 µM; kcat (2.5 μM protein): 0.00152 ± 1.7e-05 s⁻¹
